Measurements published in US20210355220A1.

Tests used:
Experiment in all cases: flow cytometry on transfected HEK293 cells, background control
[1] = target: hBTLA on HEK293 cells (human) (UniProt Q7Z6A9)
[2] = target: human CTLA-4 expressed on cells (human) (UniProt P16410)
[3] = target: hPDL1 on HEK293 cells (human) (UniProt Q9NZQ7)
[4] = target: hCD28 on HEK293 cells (human) (UniProt P10747)
[5] = target: hICOS on HEK293 cells (human) (UniProt Q9Y6W8)
[6] = target: hPD1 on HEK293 cells (human) (UniProt Q15116)
Chain of hPD1 on HEK293 cells (human) (Q15116 25-288): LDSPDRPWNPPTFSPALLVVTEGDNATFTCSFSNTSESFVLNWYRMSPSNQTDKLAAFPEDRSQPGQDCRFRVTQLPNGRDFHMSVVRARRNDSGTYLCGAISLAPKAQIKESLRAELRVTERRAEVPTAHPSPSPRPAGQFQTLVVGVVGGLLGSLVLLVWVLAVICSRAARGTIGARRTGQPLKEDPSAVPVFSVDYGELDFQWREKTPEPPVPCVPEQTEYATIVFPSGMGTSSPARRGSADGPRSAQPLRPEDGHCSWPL

[7] = target: hPDL2 on HEK293 cells (human) (UniProt Q9BQ51)
Chain of hPDL2 on HEK293 cells (human) (Q9BQ51 20-273): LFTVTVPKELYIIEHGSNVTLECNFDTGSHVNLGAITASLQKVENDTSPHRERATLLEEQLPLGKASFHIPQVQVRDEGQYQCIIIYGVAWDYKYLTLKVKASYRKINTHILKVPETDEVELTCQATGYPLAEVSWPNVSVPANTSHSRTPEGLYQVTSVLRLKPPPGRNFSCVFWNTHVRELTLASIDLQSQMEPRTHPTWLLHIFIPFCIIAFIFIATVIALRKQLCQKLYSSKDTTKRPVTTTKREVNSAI

Chain of hPDL1 on HEK293 cells (human) (Q9NZQ7 19-290): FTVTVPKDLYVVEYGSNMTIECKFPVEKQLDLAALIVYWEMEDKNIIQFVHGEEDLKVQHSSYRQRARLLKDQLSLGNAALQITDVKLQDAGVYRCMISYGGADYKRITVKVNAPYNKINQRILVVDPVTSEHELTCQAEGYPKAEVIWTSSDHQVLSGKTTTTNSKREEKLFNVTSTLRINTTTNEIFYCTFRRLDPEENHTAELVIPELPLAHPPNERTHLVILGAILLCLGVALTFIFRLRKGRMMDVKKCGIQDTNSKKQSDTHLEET
Chain of hICOS on HEK293 cells (human) (Q9Y6W8 21-199): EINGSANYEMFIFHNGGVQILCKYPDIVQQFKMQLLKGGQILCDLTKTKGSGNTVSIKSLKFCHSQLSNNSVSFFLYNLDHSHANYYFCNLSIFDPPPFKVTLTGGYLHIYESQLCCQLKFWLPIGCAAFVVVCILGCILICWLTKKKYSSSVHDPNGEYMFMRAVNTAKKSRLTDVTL
Chain of human CTLA-4 expressed on cells (human) (P16410 36-223): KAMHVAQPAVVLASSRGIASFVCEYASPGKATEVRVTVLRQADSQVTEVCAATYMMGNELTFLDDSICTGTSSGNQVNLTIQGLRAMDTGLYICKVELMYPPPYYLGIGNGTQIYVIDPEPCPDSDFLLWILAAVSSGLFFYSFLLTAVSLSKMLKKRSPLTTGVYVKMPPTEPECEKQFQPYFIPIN

- MFI [1]: 82 MFI
- MFI [2]: 78 MFI
- MFI [3]: 68 MFI
- MFI [4]: 69 MFI
- MFI [5]: 67 MFI
- MFI [6]: 74 MFI
- MFI [7]: 71 MFI
Substance: Secondary Antibody only (anti-human labeled secondary antibody)
